Biological target: M6P receptors
Experiment: cell-based or functional assay

pro-cath-D (52 kDa precursor of human cathepsin D), P07339 21-412 (enzyme), sequence (P07339 21-412 limits assumed): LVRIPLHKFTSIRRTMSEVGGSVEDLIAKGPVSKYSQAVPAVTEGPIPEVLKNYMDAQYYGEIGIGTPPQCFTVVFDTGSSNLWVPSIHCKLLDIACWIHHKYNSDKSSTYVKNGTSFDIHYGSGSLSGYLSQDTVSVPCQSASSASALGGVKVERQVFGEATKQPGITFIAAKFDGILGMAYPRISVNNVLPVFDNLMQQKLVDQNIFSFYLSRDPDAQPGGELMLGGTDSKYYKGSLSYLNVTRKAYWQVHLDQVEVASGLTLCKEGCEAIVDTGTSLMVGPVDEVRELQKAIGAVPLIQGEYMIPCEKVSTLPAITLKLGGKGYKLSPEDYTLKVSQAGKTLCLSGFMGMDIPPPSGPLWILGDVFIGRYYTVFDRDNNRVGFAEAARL

decrease in internalization of labelled pro-cath-D by HMF fibroblasts over 3 h with excess soluble M6P (10 mM): 82%
Substance: pro-cath-D (52 kDa precursor of human cathepsin D), P07339 21-412 (enzyme)
